In publication PMC7897488:

Legend:
[1] = biological target: VcaM4I HNH domain H224A variant (residues 179-309) (Vibrio campbellii); assay: SEC; Superdex 75 10/300 GL, 15 mM Tris-HCl (pH 8.5), 0.3 M NaCl, 1 mM TCEP; bovine serum albumin, ovalbumin, myoglobin and vitamin B12 as molecular mass standards
[2] = biological target: VcaM4I Helix-HNH fragment (residues 148-309) (Vibrio campbellii); assay: as above

Row | stoichiometry N [2] | Substance | stoichiometry N [1]
1 | – | VcaM4I HNH domain H224A variant (residues 179-309) (domain or fragment) | 2
2 | 2 | VcaM4I Helix-HNH fragment (residues 148-309) (domain or fragment) | –
